T1: full-length recombinant opticin (bovine (stated in Example 6 only; not …, UniProt P58874 20-321)
T1 construct: mature; also called recombinant bovine opticin; class III SLRP opticin
T1 sequence (looked up): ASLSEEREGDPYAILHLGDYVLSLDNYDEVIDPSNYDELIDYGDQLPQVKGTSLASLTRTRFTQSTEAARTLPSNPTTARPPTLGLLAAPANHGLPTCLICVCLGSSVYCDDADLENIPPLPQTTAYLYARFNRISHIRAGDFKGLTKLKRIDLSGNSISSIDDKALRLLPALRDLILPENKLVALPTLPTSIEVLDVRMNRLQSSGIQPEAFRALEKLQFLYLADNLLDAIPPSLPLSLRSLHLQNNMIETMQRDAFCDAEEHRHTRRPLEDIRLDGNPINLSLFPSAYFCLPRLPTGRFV


Legend:
[1] = biological target: basic fibroblast growth factor (FGF-2); experiment: solid-phase binding assay, growth factor coated at 2 µg/ml, opticin titrated, detected with opticin-specific antibody; apparent Kd
basic fibroblast growth factor (FGF-2), sequence (P09038 143-288): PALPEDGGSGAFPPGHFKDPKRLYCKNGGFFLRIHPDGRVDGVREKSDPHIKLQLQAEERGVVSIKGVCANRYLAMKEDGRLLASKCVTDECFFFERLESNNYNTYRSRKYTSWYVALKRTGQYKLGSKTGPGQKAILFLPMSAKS

[2] = biological target: VEGF164; experiment: as above
[3] = biological target: basic fibroblast growth factor (FGF-2); experiment: cell-based or functional assay
[4] = biological target: vascular endothelial growth factor (VEGF), isoform not stated; experiment: cell-based or functional assay
[5] = biological target: T1, full-length recombinant opticin; experiment: solid-phase binding assay, receptor coated at 2 µg/ml, opticin titrated, detected with opticin-specific antibody; apparent Kd

Row | Binder | Kd [1] [nM] | Kd [2] [nM] | inhibition of FGF-2 induced BAEC proliferation [3] [%] | reduction of FGF-2-induced BAEC migration, 10 µg/ml opticin [3] [%] | reduction of FGF-2-induced BAEC sprouting [3] [%] | inhibition of VEGF induced BAEC proliferation [4] [%] | reduction of VEGF-induced BAEC migration, 10 µg/ml opticin [4] [%] | reduction of VEGF-induced BAEC sprouting [4] [%] | Kd [5] [nM]
1 | full-length recombinant opticin (protein, UniProt P58874 20-321, looked up) ASLSEEREGDPYAILHLGDYVLSLDNYDEVIDPSNYDELIDYGDQLPQVKGTSLASLTRTRFTQSTEAARTLPSNPTTARPPTLGLLAAPANHGLPTCLICVCLGSSVYCDDADLENIPPLPQTTAYLYARFNRISHIRAGDFKGLTKLKRIDLSGNSISSIDDKALRLLPALRDLILPENKLVALPTLPTSIEVLDVRMNRLQSSGIQPEAFRALEKLQFLYLADNLLDAIPPSLPLSLRSLHLQNNMIETMQRDAFCDAEEHRHTRRPLEDIRLDGNPINLSLFPSAYFCLPRLPTGRFV | 34 | 42 | > 95 | 86 | 73 | > 90 | 53 | 70 | 
2 | VEGF-R1, soluble extracellular domain (receptor) SKLKDPELSLKGTQHIMQAGQTLHLQCRGEAAHKWSLPEMVSKESERLSITKSACGRNGKQFCSTLTLNTAQANHTGFYSCKYLAVPTSKKKETESAIYIFISDTGRPFVEMYSEIPEIIHMTEGRELVIPCRVTSPNITVTLKKFPLDTLIPDGKRIIWDSRKGFIISNATYKEIGLLTCEATVNGHLYKTNYLTHRQTNTIIDVQISTPRPVKLLRGHTLVLNCTATTPLNTRVQMTWSYPDEKNKRASVRRRIDQSNSHANIFYSVLTIDKMQNKDKGLYTCRVRSGPSFKSVNTSVHIYDKAFITVKHRKQQVLETVAGKRSYRLSMKVKAFPSPEVVWLKDGLPATEKSARYLTRGYSLIIKDVTEEDAGNYTILLSIKQSNVFKNLTATLIVNVKPQIYEKAVSSFPDPALYPLGSRQILTCTAYGIPQPTIKWFWHPCNHNHSEARCDFCSNNEESFILDADSNMGNRIESITQRMAIIEGKNKMASTLVVADSRISGIYICIASNKVGTVGRNISFYITDVPNGFHVNLEKMPTEGEDLKLSCTVNKFLYRDVTWILLRTVNNRTMHYSISKQKMAITKEHSITLNLTIMNVSLQDSGTYACRARNVYTGEEILQKKEITIRDQEAPYLLRNLSDHTVAISSSTTLDCHANGVPEPQITWFKNNHKIQQEPGIILGPGSSTLFIERVTEEDEGVYHCKATNQKGSVESSAYLTVQGTSDKSNLE |  |  |  |  |  |  |  |  | 21
